# Data published in the supplement of paper PMC10567573.
# B1: TRIM9 (parent)
# chain: PRNSCITCPQCHRSLILDDRGLRG
# Variants of: B1
# Test: protein stability index of a GFP-peptide fusion (GPS, HEK-293T) (PSI 1-6); higher = more stable
# Details: c terminus: a fixed tail appended
# 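Also: lentivirally expressed fusions sorted by FACS into six bins by GFP to DsRed ratio, PSI derived from sequencing read proportions per bin multiplied by bin number.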
row,Variant,protein stability index
1,I6N,2.29
2,I6D,2.15
3,I6T,1.89
4,I6G,1.93
5,I6S,2.02
6,I6A,1.48
7,I6L,2.26
8,I6F,1.66
9,I6M,2.08
10,I6Y,2.72
11,I6C,2.26
12,I6Q,2.16
13,I6H,2.46
14,I6P,2.6
15,I6E,2.02
16,R2M,2.16
17,R2W,2.14
18,R2H,2.29
19,R2Q,2.52
20,R2K,2.19
21,R2E,2.71
22,R2L,2.24
23,R2P,2.92
24,R2G,2.82

row,Variant,protein stability index
1,R2D,2.34
2,R2Y,3.02
3,R2F,1.89
4,R2T,2.56
5,R2C,1.74
6,R2I,2.64
7,R2A,1.58
8,R2N,2.44
9,R2V,1.92
10,R2S,1.94
11,R13V,2.2
12,R13S,2.9
13,R13C,4.16
14,R13D,3.33
15,R13E,2.61
16,R13K,1.95
17,R13M,1.77
18,R13G,2.37
19,R13A,3.91
20,R13N,2.49
21,R13T,3.47
22,R13H,2.59
23,R13F,2.09
24,R13L,1.57

row,Variant,protein stability index
1,R13Q,2.63
2,R13Y,2.53
3,R13P,1.97
4,R13W,2.42
5,R13I,1.95
6,C5Q,1.92
7,C5S,2.42
8,C5D,2.11
9,C5K,1.71
10,C5R,3.09
11,C5E,2.67
12,C5A,1.67
13,C5Y,1.87
14,C5T,2.02
15,C5P,2.49
16,C5V,2.8
17,C5H,1.77
18,C5N,1.99
19,C5F,2.08
20,C5G,2.75
21,C5I,2.34
22,C5L,2.29
23,H12D,2.28
24,H12C,1.6

row,Variant,protein stability index
1,H12L,3.13
2,H12T,1.38
3,H12M,2.78
4,H12V,3.37
5,H12K,2.69
6,H12P,2.52
7,H12Q,1.96
8,H12F,2.2
9,H12S,2.04
10,H12A,2.53
11,H12W,2.07
12,H12I,1.85
13,H12G,2.68
14,H12Y,2.46
15,H12N,2.16
16,Q10F,3
17,Q10D,2.49
18,Q10R,2.36
19,Q10M,2.04
20,Q10P,2.02
21,Q10A,2.37
22,Q10Y,3.29
23,Q10N,2.47
24,Q10E,1.53

row,Variant,protein stability index
1,Q10I,2.05
2,Q10S,2.46
3,Q10V,2.29
4,Q10K,2.25
5,Q10H,2.62
6,Q10C,1.95
7,Q10G,4.38
8,Q10L,1.89
9,Q10T,2.52
10,L17A,1.72
11,L17K,2.1
12,L17Q,2.25
13,L17W,1.56
14,L17D,2.48
15,L17Y,2.11
16,L17M,2.21
17,L17R,2.48
18,L17G,2.08
19,L17E,2.2
20,L17N,1.79
21,L17F,2.44
22,L17C,2.51
23,L17H,2.74
24,L17T,2.08

row,Variant,protein stability index
1,L17V,2.19
2,L17S,2.15
3,L17P,2.4
4,L17I,2.05
5,S14P,2.52
6,S14H,2.25
7,S14G,1.26
8,S14Q,2
9,S14K,2.7
10,S14T,2.71
11,S14D,2.4
12,S14L,2.11
13,S14C,2.92
14,S14W,1.68
15,S14R,2.4
16,S14M,2.27
17,S14I,2.93
18,S14A,2.18
19,S14Y,2.66
20,S14F,1.91
21,S14V,3.13
22,S14E,2.6
23,S14N,1.9
24,D18Y,2.36

row,Variant,protein stability index
1,D18N,1.7
2,D18G,2.36
3,D18L,1.53
4,D18C,2.05
5,D18F,1.92
6,D18A,2.31
7,D18S,2.3
8,D18W,1.68
9,D18P,1.49
10,D18E,1.71
11,D18K,2.24
12,D18T,2.24
13,D18H,2.03
14,D18V,1.85
15,D18Q,1.96
16,D18M,2.57
17,D18I,1.53
18,T7R,1.98
19,T7P,1.72
20,T7E,1.99
21,T7S,2.48
22,T7M,2.36
23,T7H,3.11
24,T7D,1.81

row,Variant,protein stability index
1,T7N,2.04
2,T7C,2.05
3,T7L,1.99
4,T7F,1.84
5,T7I,2.16
6,T7G,2.4
7,T7W,2
8,T7V,3.1
9,T7K,2.25
10,T7Q,2.38
11,T7Y,2.33
12,T7A,2.42
13,L15H,2.45
14,L15R,2.13
15,L15A,1.92
16,L15K,2.12
17,L15I,1.68
18,L15G,1.64
19,L15W,2.48
20,L15V,2.24
21,L15D,2.51
22,L15Y,2.79
23,L15T,2.59
24,L15M,2.61

row,Variant,protein stability index
1,L15P,2.77
2,L15S,2.19
3,L15E,2.19
4,L15Q,2.79
5,L15N,1.98
6,L15C,1.95
7,L15F,3.08
8,C8W,2.89
9,C8T,3.33
10,C8H,2.29
11,C8L,2.35
12,C8K,2.4
13,C8F,1.57
14,C8I,2.38
15,C8M,2.62
16,C8Y,2.54
17,C8Q,2.16
18,C8S,3.15
19,C8R,2.47
20,C8A,2.84
21,C8N,2.6
22,C8P,3.14
23,C8E,3.18
24,C8V,2.47

row,Variant,protein stability index
1,C8D,2.24
2,C8G,2.34
3,P1I,2.33
4,P1C,2.61
5,P1Q,1.83
6,P1L,2.29
7,P1Y,2.04
8,P1A,1.82
9,P1K,2.48
10,P1T,1.97
11,P1H,2.47
12,P1R,2.28
13,P1V,2.46
14,P1E,3.1
15,P1G,1.71
16,P1D,2.4
17,P1N,2.16
18,P1S,2.61
19,P1M,1.76
20,P1W,1.94
21,N3S,2.5
22,N3T,1.78
23,N3C,1.8
24,N3I,1.92

row,Variant,protein stability index
1,N3L,2.52
2,N3V,1.83
3,N3E,2.16
4,N3G,1.52
5,N3Y,1.85
6,N3K,1.94
7,N3R,2.03
8,N3M,1.6
9,N3W,1.62
10,N3P,1.49
11,N3H,2.53
12,N3D,2.34
13,N3A,2.36
14,N3F,1.96
15,C11T,2.78
16,C11A,2.29
17,C11S,2.43
18,C11D,2.92
19,C11V,2.2
20,C11M,1.97
21,C11H,2.51
22,C11F,2.38
23,C11W,3.38
24,C11P,2.47

row,Variant,protein stability index
1,C11Q,2.16
2,C11K,2.62
3,C11Y,2.11
4,C11I,2.98
5,C11G,3.01
6,C11R,2.71
7,C11L,1.83
8,C11E,2.86
9,I16C,2.32
10,I16T,1.99
11,I16L,2.38
12,I16V,2.28
13,I16S,2.97
14,I16G,1.76
15,I16N,2.49
16,I16Q,2.69
17,I16A,1.94
18,I16F,1.69
19,I16Y,2.58
20,I16E,3.16
21,I16M,2.58
22,I16R,2.13
23,I16H,1.97
24,I16P,2.42

row,Variant,protein stability index
1,I16K,2.68
2,I16D,2.64
3,P9V,2.67
4,P9L,2.12
5,P9G,1.72
6,P9E,1
7,P9C,2.45
8,P9R,2.58
9,P9A,2.5
10,P9K,2.18
11,P9H,1.51
12,P9N,1.54
13,P9D,2.05
14,P9F,1.54
15,P9M,1.45
16,P9S,2.16
17,P9W,3.5
18,P9Y,3.11
19,P9T,1.83
20,S4H,2.14
21,S4D,2.29
22,S4N,1.8
23,S4P,2.1
24,S4W,1.71

row,Variant,protein stability index
1,S4F,2.31
2,S4T,1.73
3,S4V,2.27
4,S4Q,1.85
5,S4Y,2.17
6,S4M,2.89
7,S4A,2
8,S4K,1.65
9,S4L,2.37
10,S4I,2.52
11,S4G,1.76
12,S4E,2.2
13,D19H,1.9
14,D19E,1.82
15,D19A,2.46
16,D19F,1.72
17,D19L,1.41
18,D19C,2.6
19,D19M,2.24
20,D19G,1.58
21,D19I,1.75
22,D19K,2.05
